Test [1] has as its target melanocortin 4 receptor (MC4R) (Homo sapiens) (UniProt P32245). The experiment in a line: competitive binding assay (range of obtained IC50 values); competitor [125I]-NDP-alpha-MSH.
Test [2] has the same target. The experiment in a line: cell-based or functional assay.

Chain of UniProt P32245 (P32245 whole entry V103I): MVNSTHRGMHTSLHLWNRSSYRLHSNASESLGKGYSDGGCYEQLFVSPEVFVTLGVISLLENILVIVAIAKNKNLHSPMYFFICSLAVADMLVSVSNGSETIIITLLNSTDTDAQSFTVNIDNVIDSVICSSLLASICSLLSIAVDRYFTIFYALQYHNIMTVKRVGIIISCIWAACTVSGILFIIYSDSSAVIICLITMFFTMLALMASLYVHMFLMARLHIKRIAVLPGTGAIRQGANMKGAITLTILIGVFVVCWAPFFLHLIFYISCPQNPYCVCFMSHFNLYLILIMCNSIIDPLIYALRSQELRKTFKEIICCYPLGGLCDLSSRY

The term IC50 denotes the point on the concentration scale where inhibition reaches its midpoint. High values mean weaker potency, low ones greater potency. The substance melanotan II (MTII) (peptide) yielded an IC50 in test [1] of 5 to 30 nM. In test [2], this substance yielded an EC50, cAMP production, CHOK1 Clone 1 (high MC4R expression) of 0.52 nM and an EC50, cAMP production, CHOK1 Clone 2 (low MC4R expression) of 0.52 nM.

Values taken from patent US20060105951A1.
